Assay results as given in US20240002795A1 (published 2024).

T1: RET M918T peptide on HLA-DPA1*01:03 / HLA-DPB1*04:01 (human)
T1 peptide: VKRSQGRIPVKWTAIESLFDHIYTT

T2: RET wild type peptide on HLA-DPA1*01:03 / HLA-DPB1*04:01 (human)
T2 peptide: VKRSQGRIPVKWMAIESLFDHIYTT

T3: RET M918T peptide on HLA-DPA1*01:03 / HLA-DPB1*04:02 (human)
T3 peptide: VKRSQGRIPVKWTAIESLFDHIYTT

T4: RET wild type peptide on HLA-DPA1*01:03 / HLA-DPB1*04:02 (human)
T4 peptide: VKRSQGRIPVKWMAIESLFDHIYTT


How the values were obtained:
Assay in all cases: activation reporter or marker
[1] = molecular target: T1, RET M918T peptide on HLA-DPA1*01:03 / …
[2] = molecular target: T2, RET wild type peptide on HLA-DPA1*01:03 …
[3] = molecular target: T3, RET M918T peptide on HLA-DPA1*01:03 / …
[4] = molecular target: T4, RET wild type peptide on HLA-DPA1*01:03 …

binding result [1] | binding result [2] | binding result [3] | binding result [4] | Binder
recognises | no recognition | recognises | no recognition | TCR-ID-2 (TCR, V domains shown) Valpha: AQKITQTQPGMFVQEKEAVTLDCTYDTSDQSYGLFWYKQPSSGEMIFLIYQGSYDEQNATEGRYSLNFQKARKSANLVISASQLGDSAMYFCAMREGDGDDMRFGAGTRLTVKP Vbeta: EPEVTQTPSHQVTQMGQEVILRCVPISNHLYFYWYRQILGQKVEFLVSFYNNEISEKSEIFDDQFSVERPDGSNFTLKIRSTKLEDSAMYFCASSSQIQTVMNTEAFFGQGTRLTVV
recognises | no recognition | recognises |  | TCR-ID-3 (TCR, V domains shown) Valpha: DQQVKQNSPSLSVQEGRISILNCDYTNSMFDYFLWYKKYPAEGPTFLISISSIKDKNEDGRFTVFLNKSAKHLSLHIVPSQPGDSAVYFCAASGHGGSQGNLIFGKGTKLSVKP Vbeta: GAGVSQSPRYKVAKRGQDVALRCDPISGHVSLFWYQQALGQGPEFLTYFQNEAQLDKSGLPSDRFFAERPEGSVSTLKIQRTQQEDSAVYLCASSLRFLGQGSYEQYFGPGTRLTVT
recognises | no recognition | recognises | no recognition | TCR-ID-1 (TCR, V domains shown) Valpha: GNSVTQMEGPVTLSEEAFLTINCTYTATGYPSLFWYVQYPGEGLQLLLKATKADDKGSNKGFEATYRKETTSFHLEKGSVQVSDSAVYFCALSENAGNQFYFGTGTSLTVIP Vbeta: NAGVTQTPKFQVLKTGQSMTLQCAQDMNHEYMSWYRQDPGMGLRLIHYSVGAGITDQGEVPNGYNVSRSTTEDFPLRLLSAAPSQTSVYFCASSRGNTQYFGPGTRLTVL
